Biological target: partially (~50%) activated 3954-1204-c225v5
Assay: sandwich ELISA in human plasma; clone 41 coated as capture, biotinylated detection antibody, streptavidin-HRP, OD 450 nm

| Binder | signal relative to the signal for intact 3954-1204-c225v5 [% lower] |
| --- | --- |
| antibody 58-1 (antibody, V domains shown) VH: QSVEESGGRLVMPGGSLTLTCTVSGIDLSRYGMAWFRQAPGKGLKYIGAISSSGNEDYASWAIGRFTISKTSTTAELKMTSLTTEDTATYFCGRGWLSNNAYMWGPGTLVTVSS VL: PVLTQTPTPVSAAVGGTVTINCQASQSIYNKNQLSWFQQKPGQPPKLLIHYASTLASGVSSRFKGSGSGTQFTLTISDVQCDDAATYYCLGDFSCSGVDCLVVGGGTEVVVEG | 50 |
| antibody 72-3 (antibody, V domains shown) VH: QSVEESGGRLVMPGGSLTLTCTVSGIDLSHYGMAWFRQAPGKGLEYIGAISSSGNEDYASWPKGRFTISKTSTTVTLKMTSLTTEDTATYFCGRGWLSNNVYMWGPGTLVTVSS VL: QVLTQTPPSVSAAVGGTVTINCQASQSIYNKNQLSWLQQKPGQPPKVLIHYASTLASGVSSRFKGSGSGTQFTLTISDVQCDDAATYYCLGDFSCSGVDCLSVGGGTEVVVEG | 50 |

Source: patent US20170326260A1
